What all share (assay): SPR; Biacore 3000; HopZ1a proteins, GST or BSA immobilised on CM5 chips by amine coupling; 500 µg/ml (Figure S1A: 250 µg/ml) tubulin injected; 25°C, HBS-EP running buffer (0.01 M HEPES pH 7.4, 0.15 M NaCl, 3 mM EDTA, 0.005% Surfactant P20)
On the technique in general: SPR reads the build-up and loss of mass on a sensor chip optically.

Test [1] has as its target GST-HopZ1a (Pseudomonas syringae pv. syringae A2) (UniProt Q6VE93).
For test [2], the target named is HIS-HopZ1a (Pseudomonas syringae pv. syringae A2) (UniProt Q6VE93).
Test [3] concerns the target HIS-HopZ1a(C216A) (Pseudomonas syringae pv. syringae A2) (UniProt Q6VE93).
Test [4] has as its target HIS-HopZ1a (Pseudomonas syringae pv. syringae A2) (UniProt Q6VE93). This is another data set of the same source.
Test [5] addresses HIS-HopZ1a(K289R) (Pseudomonas syringae pv. syringae A2) (UniProt Q6VE93).

Read-outs that look alike come from different tables or passages of the source.

In the case of “bovine brain tubulin heterodimers (from UniProt Q6B856 1-445) (complex)”, the RU difference in test [1] stood at 36 RU. Moreover, in test [2], the RU difference is 1050 RU, the RU difference (250 µg/ml tubulin) amounted to 630 RU, the RU difference (6973 RU HIS-HopZ1a immobilised) was found to be 59 RU and the RU difference (13598 RU HIS-HopZ1a immobilised) was 324 RU. Moreover, in test [2], the RU difference (18289 RU HIS-HopZ1a immobilised) is 615 RU. Further, in test [3], the RU difference amounted to 1150 RU and the RU difference (250 µg/ml tubulin) was found to be 463 RU. This substance also showed an RU difference in test [4] of 117 RU. The same substance had an RU difference in test [5] of 186 RU.
With soybean tubulin (complex), the values for the RU difference in test [1] and in test [2] were 305 RU and 1230 RU, respectively.
